Data reported in patent US20180214548A1 (SHANGHAI YUNYI HEALTHCARE AND TECHNOLOGY, published 2018).
Values belong to the binder of their own block, whether it stands above or below them.

Experiments:
[1] = target: T1, ICOS (human, UniProt Q9Y6W8 21-140, limits assumed); experiment: ELISA on coated protein (Table 9)
T1 sequence (looked up): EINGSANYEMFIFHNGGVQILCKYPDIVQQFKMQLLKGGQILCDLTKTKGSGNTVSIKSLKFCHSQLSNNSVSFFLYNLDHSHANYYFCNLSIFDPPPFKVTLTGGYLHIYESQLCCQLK
Experimental: (§1) 100 uL of the diluted recombinant proteins were added to each well of 96-well plate. The plates were sealed with plastic film and incubated at 4° C. overnight. The plates were washed twice with wash buffer (PBS+0.01% (v/v) Tween20), and incubated with blocking buffer (PBS+0.01% (v/v) Tween20+1% (w/w) BSA) at room temperature for 2 hours. The blocking buffer was aspirated away, and 100 uL of purified anti-PD-1 antibodies were added to each well and incubated for 2 hours at 37° C. The plates were washed three times with wash buffer (PBS+0.01% (v/v) Tween20). HRP-conjugated secondary antibody (Sigma) was added to each well and incubated for 2 hours at 37° C. After the plates were washed three times with wash buffer, 100 uL TMB substrate was added to each well and incubated for 30 minutes at room temperature. 100 uL stop solution (0.1N HCl) was added to each well to stop the reaction. The absorbance at 450 nm was measured with an ELISA plate reader (384plus SpectraMax, Molecular Devices).

[2] = target: T2, CTLA4 (human, UniProt P16410 37-162, limits assumed); experiment: ELISA on coated protein (Table 9)
T2 sequence (looked up): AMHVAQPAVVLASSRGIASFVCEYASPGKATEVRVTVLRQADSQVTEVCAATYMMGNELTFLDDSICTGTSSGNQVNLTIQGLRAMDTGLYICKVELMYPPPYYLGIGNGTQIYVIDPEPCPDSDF
Experimental: as §1

[3] = target: T3, B7-1 (human, UniProt P33681 35-242); experiment: ELISA on coated protein (Table 9)
T3 sequence (looked up): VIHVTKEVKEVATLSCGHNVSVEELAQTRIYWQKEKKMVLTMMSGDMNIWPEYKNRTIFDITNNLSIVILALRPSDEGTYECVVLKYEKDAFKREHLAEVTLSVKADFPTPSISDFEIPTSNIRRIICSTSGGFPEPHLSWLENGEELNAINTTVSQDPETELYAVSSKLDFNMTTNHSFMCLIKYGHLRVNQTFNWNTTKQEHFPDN
Experimental: as §1

[4] = target: T4, human PD-1^ECD-hFc protein (Immunogen A) (human, UniProt Q15116 25-167); experiment: ELISA, coated human PD-1ECD-hFc; antibody 10 nM
T4 construct: Biotinylated for the Octet assay; also called PD-1-hFc; hPD-1^ECD-hFc; not shown: human IgG Fc fragment (hFc)
T4 sequence (Q15116 25-167): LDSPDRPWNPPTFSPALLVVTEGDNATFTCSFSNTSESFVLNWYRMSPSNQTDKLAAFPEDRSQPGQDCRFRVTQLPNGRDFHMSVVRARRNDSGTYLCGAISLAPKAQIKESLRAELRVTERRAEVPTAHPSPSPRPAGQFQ
Experimental: as §1

[5] = target: T4, human PD-1^ECD-hFc protein (Immunogen A); experiment: ELISA, coated human PD-1ECD-hFc; antibody 0.001 nM
Experimental: as §1

[6] = target: T5, full length human PD-1 on cells (human, UniProt Q15116 25-288); experiment: flow cytometry, CHO-K1-hPD-1 cells; antibody 0.316 nM
T5 construct: Also used here for PD-1 on human T cells/PBMC; also called CHO-K1-hPD-1; hPD-1
T5 sequence (Q15116 25-288 limits assumed): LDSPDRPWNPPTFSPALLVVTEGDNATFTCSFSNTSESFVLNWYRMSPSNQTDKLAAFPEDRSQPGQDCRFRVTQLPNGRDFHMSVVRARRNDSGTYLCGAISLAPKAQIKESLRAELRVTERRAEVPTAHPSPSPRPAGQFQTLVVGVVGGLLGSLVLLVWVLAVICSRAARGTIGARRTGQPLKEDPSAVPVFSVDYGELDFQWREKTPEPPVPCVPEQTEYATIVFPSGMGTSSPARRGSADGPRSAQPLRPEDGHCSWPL
From the text: (§2) CHO-K1 cells were stably transfected with pIRES plasmid containing the nucleic acid sequence encoding full length human PD-1 (see Example 2, step 2) to generate CHO-K1 cells stably expressing human PD-1 (herein referred to as CHO-K1-hPD-1 cells). Other CHO-K1 were stably transfected with pIRES plasmid containing the nucleic acid sequence encoding full length cyno PD-1 to generate CHO-K1 cells stably expressing cyno PD-1 (herein referred to as CHO-K1-cPD-1 cells). CHO-K1-hPD-1 and CHO-K1-cPD-1 cells were cultured and expanded in T-75 culture flasks to 90% confluence. The culture media was aspirated, and the cells were washed twice with HBSS (Hanks Balanced Salt Solution, Invitrogen). The cells were treated with enzyme-free cell dissociation solution (Versene solution, Invitrogen) and collected. The cells were then washed twice with HBSS, cell counts were determined, and cells were resuspended with HBSS at 2×10⁶ cells/mL. Goat serum was added to the cell suspension to a final concentration of 1%, and the cells were blocked for 30 minutes on ice and then washed twice with HBSS. The cells were collected after centrifugation and resuspended in FACS buffer (HBSS+1% BSA, v/v) at 2×10⁶ cells/mL. 100 uL of the cell suspension were then added to each well of 96-well plate. 100 uL of purified anti-PD-1 antibodies from Example 2 were added to each well of the 96-well plate and incubated for 2 hours on ice. […] The samples were washed three times with FACS buffer, and 100 uL fixation buffer (4% paraformaldehyde v/v) were added to each well and incubated for 10 minutes. The cells were then washed twice with FACS buffer and resuspended in 100 uL FACS buffer. The mean fluorescence intensity (MFI) was determined using FACS Calibur (BD), and the results are shown in FIGS. 7-8 and in Tables 10-11.

[7] = target: T5, full length human PD-1 on cells; experiment: flow cytometry, CHO-K1-hPD-1 cells; antibody 0.0316 nM
From the text: as §2

[8] = target: T5, full length human PD-1 on cells; experiment: flow cytometry, CHO-K1-hPD-1 cells; antibody 31.6 nM
From the text: as §2

[9] = target: T5, full length human PD-1 on cells; experiment: flow cytometry, CHO-K1-hPD-1 cells; antibody 3.16 nM
From the text: as §2

[10] = target: T5, full length human PD-1 on cells; experiment: cell-based receptor-ligand blocking, flow cytometry: CHO-K1-hPD-1 cells, blocked ligand biotinylated PD-L2-Fc, streptavidin-Alexa 488
Experimental: CHO-K1-hPD-1 cells were cultured and expanded in T-75 culture flasks to 60-80% confluence. The culture media was aspirated, and the cells were washed twice with PBS. The cells were treated with TrypLE™ Express (Invitrogen) and collected. Trypsin was neutralized by the addition of 8 mL culture medium, and cell counts were determined. […] The cells were blocked for 15 minutes at 37° C. Meanwhile, the wells of 96-well round-bottom plates were blocked with 200 uL blocking buffer for 1 hour at 37° C. The blocking buffer was discarded, and 200 uL cells were dispensed to each well of the 96-well plates (2×10^5 cells/well). The plates were centrifuged at 500 g for 5 minutes, and the supernatants were discarded. The cells were resuspended in 100 uL antibody prepared in blocking buffer. […] The plates were incubated at 4° C. for 90 minutes and washed twice with 200 uL blocking buffer. […] The plates were washed three times with blocking buffer and resuspended in 200 uL blocking buffer. The mean fluorescence intensity (MFI) was determined using FACS Calibur (BD).

- binding result [1]: no binding
- binding result [2]: no binding
- binding result [3]: no binding
- OD450 nm [4]: 2.87
- OD450 nm [5]: 0.468
B1: chimeric anti-PD-1 antibody 21G8F11 (antibody, V domains shown)
VH: EVQLLESGGGLAQPGGSLRLSCAASGFSFNTYLMHWVRQAPGKGLEWVSAISGGGGNTYYADSVKGRFTISRDNSKNTLYLQMNSLRAEDTAVYYCAKENRIPVAPFDYWGQGTLVTVSS
VL: DIQMTQSPSTLSASVGDRVTITCRASQSISTWLAWYQQKPGKAPKLLIYKASSLESGVPSRFSGSGSGTEFTLTISSLQPDDLATYYCQQYNSFSWTFGQGTKVEIK
notes: Purified from hybridoma of Harbour H2L2 mice: human variable regions, rat constant regions

- binding result [1]: no binding
- binding result [2]: no binding
- binding result [3]: no binding
- Mean fluorescence intensity [6]: 26.1
- Mean fluorescence intensity [7]: 2.1
- Mean fluorescence intensity [8]: 241
- Mean fluorescence intensity [9]: 97.5
- OD450 nm [4]: 3.14
B2: chimeric anti-PD-1 antibody 32B5C7 (antibody, V domains shown)
VH: EVQLLESGGGLVQPGGSLRLSCAASGFTFSSYAMSWVRQAPGKGLEWVSTISGSGGTTYYADSVKGRFTISRDNSKNTLYLQMNSLRAEDTAVYYCTLTGDPDYWGQGTLVTVSS
VL: EIVLTQSPATLSLSPGERATLSCRASQSVSSYLAWYQQKPGQAPRLLIYDASKRATGIPARFSGSGSGTDFTLTISSLEPEDFAVYYCQQRNNWPLTFGGGTKVEIK
notes: as for B1

- binding result [1]: no binding
- binding result [2]: no binding
- binding result [3]: no binding
- Mean fluorescence intensity [6]: 76.8
- IC50 (read off the curve) [10]: ~2 nM
- Mean fluorescence intensity [7]: 2.2
- Mean fluorescence intensity [8]: 466
- Mean fluorescence intensity [9]: 280
- OD450 nm [4]: 3.12
B3: chimeric anti-PD-1 antibody 76G5B3 (antibody, V domains shown)
VH: QVQLVESGGGVVQPGRSLRLSCAASGFTFSDYGFHWVRQAPGKGLEWVAVIWYDGSNEYYTDSVKGRFTISRDNSKNTLYLQMNSLRAEDTAMYFCVVNPFDYWGQGTLVTVSS
VL: DIQMTQSPSSLSAFVGDRVTITCRASQGINHYLAWYQQKPGKAPNLLILAASTLLSGVPSRFGGRGSGTDFTLIISSLQPEDVATYYCQKYDSAPYTFGQGTKLEIK
notes: as for B1
